The source of these data is US20160185837A1, “GIP AND GLP-1 RECEPTOR DUAL-AGONISTS FOR THE TREATMENT OF DIABETES” (Medimmune Limited, priority 2013, published 2016).

Holding throughout (assay): cell-based or functional assay
In assay [1] the target is T1, human GIP receptor (human) (UniProt P48546).
T1 sequence (looked up): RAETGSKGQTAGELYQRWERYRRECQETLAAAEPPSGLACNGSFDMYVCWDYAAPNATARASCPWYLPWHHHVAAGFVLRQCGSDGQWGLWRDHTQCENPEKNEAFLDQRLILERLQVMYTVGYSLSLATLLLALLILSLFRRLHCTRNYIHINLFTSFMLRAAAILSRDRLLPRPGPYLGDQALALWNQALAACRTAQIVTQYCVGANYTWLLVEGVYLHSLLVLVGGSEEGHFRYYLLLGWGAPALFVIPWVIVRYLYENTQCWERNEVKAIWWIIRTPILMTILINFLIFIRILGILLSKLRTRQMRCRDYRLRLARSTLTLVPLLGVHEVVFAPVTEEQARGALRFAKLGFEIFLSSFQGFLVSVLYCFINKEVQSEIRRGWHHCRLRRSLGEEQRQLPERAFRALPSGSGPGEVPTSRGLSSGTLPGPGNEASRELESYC

Assay [2] addresses human GLP-1 receptor (human) (UniProt P43220).
Assay [3] addresses human glucagon receptor (human) (UniProt P47871).
For assay [4], the target named is T2, mouse GIP receptor (mouse) (UniProt Q0P543).
T2 sequence (looked up): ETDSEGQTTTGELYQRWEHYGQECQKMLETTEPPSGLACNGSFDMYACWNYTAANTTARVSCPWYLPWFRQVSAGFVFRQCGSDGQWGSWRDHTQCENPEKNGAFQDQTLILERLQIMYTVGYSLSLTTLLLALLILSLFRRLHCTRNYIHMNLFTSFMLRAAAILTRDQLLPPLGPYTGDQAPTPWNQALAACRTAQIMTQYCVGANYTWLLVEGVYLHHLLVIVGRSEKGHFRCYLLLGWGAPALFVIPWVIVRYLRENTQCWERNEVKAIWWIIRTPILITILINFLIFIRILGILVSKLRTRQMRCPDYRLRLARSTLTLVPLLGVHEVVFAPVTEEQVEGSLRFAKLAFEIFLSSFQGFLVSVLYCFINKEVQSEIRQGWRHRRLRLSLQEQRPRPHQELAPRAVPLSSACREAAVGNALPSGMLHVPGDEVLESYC

In assay [5] the target is mouse GLP-1 receptor (mouse) (UniProt O35659).
For assay [6], the target named is T3, rat GIP receptor (rat) (UniProt P43219).
T3 sequence (looked up): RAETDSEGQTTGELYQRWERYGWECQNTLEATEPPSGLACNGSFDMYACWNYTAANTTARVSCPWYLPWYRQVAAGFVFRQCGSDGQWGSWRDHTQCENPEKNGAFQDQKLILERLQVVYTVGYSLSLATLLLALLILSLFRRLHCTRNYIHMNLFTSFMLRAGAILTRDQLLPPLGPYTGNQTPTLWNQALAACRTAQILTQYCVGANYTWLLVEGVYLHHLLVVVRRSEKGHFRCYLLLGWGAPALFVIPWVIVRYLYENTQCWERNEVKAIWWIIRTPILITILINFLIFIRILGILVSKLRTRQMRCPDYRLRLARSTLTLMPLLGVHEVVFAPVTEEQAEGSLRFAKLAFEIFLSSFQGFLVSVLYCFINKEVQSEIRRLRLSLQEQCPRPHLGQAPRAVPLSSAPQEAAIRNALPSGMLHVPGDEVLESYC

For assay [7], the target named is rat GLP-1 receptor (rat) (UniProt P32301).

Positions count from the first letter of the chain named.

Sequence of rat GLP-1 receptor (rat) (P32301 22-463): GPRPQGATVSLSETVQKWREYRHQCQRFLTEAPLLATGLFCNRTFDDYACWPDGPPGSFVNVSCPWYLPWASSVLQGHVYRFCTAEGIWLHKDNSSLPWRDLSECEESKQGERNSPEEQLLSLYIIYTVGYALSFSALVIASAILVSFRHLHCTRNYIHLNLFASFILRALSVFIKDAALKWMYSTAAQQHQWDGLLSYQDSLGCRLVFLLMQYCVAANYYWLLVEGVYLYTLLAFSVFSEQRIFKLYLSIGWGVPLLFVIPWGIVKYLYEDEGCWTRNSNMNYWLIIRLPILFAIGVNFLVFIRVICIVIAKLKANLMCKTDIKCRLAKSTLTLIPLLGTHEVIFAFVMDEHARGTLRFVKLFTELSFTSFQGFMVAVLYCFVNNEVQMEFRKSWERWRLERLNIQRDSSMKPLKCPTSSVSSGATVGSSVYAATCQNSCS
Sequence of human glucagon receptor (human) (P47871 26-477): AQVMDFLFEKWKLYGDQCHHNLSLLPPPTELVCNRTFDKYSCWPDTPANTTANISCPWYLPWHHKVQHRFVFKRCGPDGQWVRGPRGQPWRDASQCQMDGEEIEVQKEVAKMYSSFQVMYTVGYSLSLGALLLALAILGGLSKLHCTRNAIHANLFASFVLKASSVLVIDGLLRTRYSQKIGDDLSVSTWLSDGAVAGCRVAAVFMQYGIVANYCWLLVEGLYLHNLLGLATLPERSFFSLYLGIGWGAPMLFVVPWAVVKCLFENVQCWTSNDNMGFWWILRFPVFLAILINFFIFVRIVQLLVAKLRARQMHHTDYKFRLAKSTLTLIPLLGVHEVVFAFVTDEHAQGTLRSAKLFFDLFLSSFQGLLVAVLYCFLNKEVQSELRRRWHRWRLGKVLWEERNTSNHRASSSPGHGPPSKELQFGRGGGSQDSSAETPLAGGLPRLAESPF
Sequence of human GLP-1 receptor (human) (P43220 24-463): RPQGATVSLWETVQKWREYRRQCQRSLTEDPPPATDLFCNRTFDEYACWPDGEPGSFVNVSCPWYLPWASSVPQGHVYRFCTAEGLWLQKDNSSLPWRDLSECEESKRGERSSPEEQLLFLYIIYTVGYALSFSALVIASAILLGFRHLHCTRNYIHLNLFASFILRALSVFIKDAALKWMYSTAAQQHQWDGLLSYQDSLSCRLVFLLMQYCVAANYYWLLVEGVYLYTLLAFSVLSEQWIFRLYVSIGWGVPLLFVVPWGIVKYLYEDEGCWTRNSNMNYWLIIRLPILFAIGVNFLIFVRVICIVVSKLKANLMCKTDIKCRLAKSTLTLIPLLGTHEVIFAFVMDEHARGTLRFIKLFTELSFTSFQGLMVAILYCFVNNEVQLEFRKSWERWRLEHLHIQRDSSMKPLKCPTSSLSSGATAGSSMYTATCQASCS
Sequence of mouse GLP-1 receptor (mouse) (O35659 22-463): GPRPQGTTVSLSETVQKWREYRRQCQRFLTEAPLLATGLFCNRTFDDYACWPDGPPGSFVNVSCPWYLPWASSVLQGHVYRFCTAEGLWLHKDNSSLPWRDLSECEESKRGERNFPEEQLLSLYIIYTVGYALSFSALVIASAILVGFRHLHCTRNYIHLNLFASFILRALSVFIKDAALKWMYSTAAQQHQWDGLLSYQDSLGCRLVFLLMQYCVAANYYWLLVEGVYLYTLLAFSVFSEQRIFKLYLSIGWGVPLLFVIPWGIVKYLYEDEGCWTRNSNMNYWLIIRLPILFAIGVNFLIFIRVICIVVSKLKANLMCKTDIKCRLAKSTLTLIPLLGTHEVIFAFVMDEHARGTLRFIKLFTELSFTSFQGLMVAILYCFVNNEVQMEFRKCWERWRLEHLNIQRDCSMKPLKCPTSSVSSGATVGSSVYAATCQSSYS

B1: IP369 (Fc fusion)
chain: YSEGTFTSDYSKLLERQAIDEFIAHLLKGGGGGGGSGGGGSGGGGSGGGGSGGGGSGGGGSA
Consider B1, for which the cAMP EC50 was found to be 0.0089 nM in assay [1]; 0.071 nM in assay [2]; 710 nM in assay [3]; 0.68 nM in assay [4]; 0.27 nM in assay [5]; 0.02 nM in assay [6]. The cAMP EC50 in assay [7] was 0.023 nM.

B2: IP368 (Fc fusion)
chain: YSEGTFTSDYRQAIDRQAIDEFIAWLLKGGGGGGGSGGGGSGGGGSGGGGSACPPC
Regarding B2, the cAMP EC50 is 0.2 nM in assay [1]; 230 nM in assay [2]; greater than 4860 nM in assay [3]; 1.3 nM in assay [4]; greater than 4860 nM in assay [5]; 0.22 nM in assay [6]. In assay [7], this molecule showed a cAMP EC50 of 370 nM.

B3: IP396 (Fc fusion)
chain: B2 chain with R11S, Q12K, A13L, I14L, D15E
Regarding B3, the cAMP EC50 was 0.0093 nM in assay [1]; 0.11 nM in assay [2]; 330 nM in assay [3]; 0.28 nM in assay [4]; 1.2 nM in assay [5]; 0.19 nM in assay [6]. In assay [7], the cAMP EC50 turned out to be 0.057 nM. Moreover, the cAMP EC50, Batch 2 in assay [2] is 0.11 nM; in assay [3] it was 250 nM; in assay [4], 0.78 nM; in assay [5], 2.5 nM; in assay [6], 0.014 nM; in assay [7] it was 0.01 nM.

B4: IP385 (Fc fusion)
chain: B2 chain with R11S, Q12I, A13Y, I14L
For B4, the cAMP EC50 in assay [1] was 0.012 nM; in assay [2], 0.47 nM; in assay [3] it was greater than 1560 nM; in assay [4], 18 nM; in assay [5], 30 nM; in assay [6] it was 1.1 nM. The cAMP EC50 in assay [7] is 0.16 nM.

B5: IP367 (Fc fusion)
chain: YSEGTFTSDYRILKERQAIDEFIAWLLKGGAAAGGSGSTASSGSGSATGGGGAATHTCPPC
In the case of B5, the cAMP EC50 in assay [1] was 0.057 nM; in assay [2], 4.4 nM; in assay [3], greater than 1300 nM; in assay [4], 0.031 nM; in assay [5] it was 390 nM; in assay [6] it was 0.0099 nM. In addition, in assay [7], the cAMP EC50 came out at 8 nM. The molecule further returned a cAMP EC50, hGIPr (C3) line in assay [1] of 13 nM.

B6: IP394 (Fc fusion)
chain: B5 chain with T5M, F6H, Y10L, R11S, I12K, K14L
For the molecule B6, the cAMP EC50 in assay [1] is 0.0095 nM; in assay [2], 0.54 nM; in assay [3], greater than 17600 nM; in assay [4] it was 10 nM; in assay [5], 10 nM; in assay [6], 0.06 nM. Further, in assay [7], the cAMP EC50 turned out to be 0.23 nM.

B7: IP375 (Fc fusion)
chain: B5 chain with F6H, D9L, Y10F, R11S, I12K, K14L
Turning to B7, the cAMP EC50 is 0.078 nM in assay [1]; 4 nM in assay [2]; greater than 11700 nM in assay [3]; 0.65 nM in assay [4]; 49 nM in assay [5]; 0.07 nM in assay [6]. For the same molecule, the cAMP EC50 in assay [7] came out at 3.9 nM.

B8: IP373 (Fc fusion)
chain: B5 chain with F6H, Y10F, R11S, I12K, K14L
B8: the cAMP EC50 in assay [1] was 0.0054 nM; in assay [2], 0.72 nM; in assay [3] it was greater than 6790 nM; in assay [4], 3.2 nM; in assay [5], 9.2 nM; in assay [6], 0.035 nM. The cAMP EC50 in assay [7] was 0.9 nM.

B9: IP305 (Fc fusion)
chain: YSEGTFISDYSIALAAAAVRDFVNWLLAGGGGGGGSGGGGSGGGGSGGGGSATHTCPPC
With B9, the cAMP EC50 in assay [1] is 0.26 nM; in assay [2], 230 nM; in assay [3] it was 1100 nM; in assay [4], 3.2 nM; in assay [5], greater than 1130 nM; in assay [6], 1.7 nM. The cAMP EC50 in assay [7] turned out to be 47 nM.

B10: IP311 (Fc fusion)
chain: B9 chain with V19I, R20D
As to B10, the cAMP EC50 in assay [1] was 0.074 nM; in assay [2] it was 670 nM; in assay [3] it was greater than 2420 nM; in assay [4], 0.95 nM; in assay [5], 1500 nM; in assay [6], 0.43 nM. The molecule also returned a cAMP EC50 in assay [7] of 61 nM.

B11: IP308 (Fc fusion)
chain: B9 chain with V19A, R20K
Take B11: the cAMP EC50 is 0.025 nM in assay [1]; 1300 nM in assay [2]; 1500 nM in assay [3]; 0.17 nM in assay [4]; greater than 1520 nM in assay [5]; 0.09 nM in assay [6]. Further, the cAMP EC50 in assay [7] is 700 nM.

B12: IP302 (Fc fusion)
chain: B9 chain with V19Q, R20Q
As to B12, the cAMP EC50 was 0.018 nM in assay [1]; 26 nM in assay [2]; 1200 nM in assay [3]; 0.083 nM in assay [4]; 93 nM in assay [5]; 0.055 nM in assay [6]. The cAMP EC50 in assay [7] is 7 nM.

B13: IP314 (Fc fusion)
chain: B9 chain with I12K, A13L
For the molecule B13, the cAMP EC50 in assay [1] was 0.23 nM; in assay [2] it was greater than 906 nM; in assay [3], 740 nM; in assay [4] it was 15 nM; in assay [5] it was greater than 906 nM; in assay [6], 0.88 nM. Besides, the cAMP EC50 in assay [7] was 450 nM.

B14: IP342 (Fc fusion)
chain: YSEGTFTSDYSAAAEAAAAAAFAAWLAAAAGGGGGSGGGGSGGGGSGGGGSACPPC
As to B14, the cAMP EC50 is 4.7 nM in assay [1]; 75 nM in assay [2]; greater than 3560 nM in assay [3]; 43 nM in assay [4]; 670 nM in assay [5]; 5.1 nM in assay [6]. In assay [7], this molecule came in with a cAMP EC50 of 23 nM.

B15: IP332 (Fc fusion)
chain: YSEGTFTSDYSIALAAAAQQDFVNWLLAGGGGGGGSGGGGSGGGGSGGGGSGGGGSGGGGSA
Turning to B15, the cAMP EC50 in assay [1] was 0.026 nM; in assay [2], 98 nM; in assay [3], greater than 1250 nM; in assay [4], 0.21 nM; in assay [5], 750 nM; in assay [6] it was 0.044 nM. In assay [7], this molecule gave a cAMP EC50 of 50 nM.

B16: IP333 (Fc fusion)
chain: B15 chain with T7I, A28K
Regarding B16, the cAMP EC50 in assay [1] was 0.0086 nM; in assay [2], greater than 1080 nM; in assay [3], greater than 1080 nM; in assay [4], 0.019 nM; in assay [5] it was greater than 1080 nM; in assay [6], 0.015 nM. In assay [7], this molecule displayed a cAMP EC50 of 430 nM.

B17: IP334 (Fc fusion)
chain: B15 chain with A28K
With B17, the cAMP EC50 in assay [1] was 0.029 nM; in assay [2] it was 130 nM; in assay [3] it was greater than 455 nM; in assay [4], 0.3 nM; in assay [5], greater than 455 nM; in assay [6], 0.056 nM. The molecule further gave a cAMP EC50 in assay [7] of 120 nM.
